# Measured values taken from the Human Domainome abundance scans (Beltran et al. 2025).
# ± gives the uncertainty stated by the source.
# B1: POU domain, class 3, transcription factor 3, residues 408 to 463; numbered along this chain, P20264 (parent)
# chain: KKRTSIEVSVKGALESHFLKCPKPSAQEITNLADSLQLEKEVVRVWFCNRRQKEKR
# Variants of: B1
# Assay: abundance fitness (aPCA) (normalised: wild type 0, dead -1); higher = more abundant; growth selection in yeast, the domain comes from the species named
# Conditions: Homo sapiens
row,Variant,abundance fitness
1,KKRTSIEVSVKGALESHFLKCPKPSAQEITNLADSLQPEKEVVRVWFCNRRQKEKR [L38P],-0.951 ± 0.17
2,KKRTSIEVSVKGALESHFLKCPKPSAQEITNLADSLQFEKEVVRVWFCNRRQKEKR [L38F],-0.91 ± 0.18
3,KKRTSIEVSVKGALESHFLKCPKPSAQEITNLADSLQTEKEVVRVWFCNRRQKEKR [L38T],-0.18 ± 0.087
4,KKRTSIEVSVKGALESHFLKCPKPSAQEITNLADSLQHEKEVVRVWFCNRRQKEKR [L38H],-0.735 ± 0.16
5,KKRTSIEVSVKGALESHFLKCPKPSAQEITNLADSLQIEKEVVRVWFCNRRQKEKR [L38I],-0.048 ± 0.16
6,KKRTSIEVSVKGALESHFLKCPKPSAQEITNLADSLQMEKEVVRVWFCNRRQKEKR [L38M],-0.13 ± 0.095
7,KKRTSIEVSVKGALESHFLKCPKPSAQEITNLADSLQREKEVVRVWFCNRRQKEKR [L38R],-0.889 ± 0.08
8,KKRTSIEVSVKGALESHFLKCPKPSAQEITNLADSLQYEKEVVRVWFCNRRQKEKR [L38Y],-0.982 ± 0.2
9,KKRTSIEVSVKGALESHFLKCPKPSAQEITNLADSLQSEKEVVRVWFCNRRQKEKR [L38S],-0.699 ± 0.078
10,KKRTSIEVSVKGALESHFLKCPKPSAQEITNLADSLQCEKEVVRVWFCNRRQKEKR [L38C],-0.387 ± 0.09
11,KKRTSIEVSVKGALESHFLKCPKPSAQEITNLADSLQQEKEVVRVWFCNRRQKEKR [L38Q],-0.605 ± 0.11
12,KKRTSIEVSVKGALESHFLKCPKPSAQEITNLADSLQAEKEVVRVWFCNRRQKEKR [L38A],-0.693 ± 0.074
13,KKRTSIEVSVKGALESHFLKCPKPSAQEITNLADSLQKEKEVVRVWFCNRRQKEKR [L38K],-0.895 ± 0.14
14,KKRTSIEVSVKGALESHFLKCPKPSAQEITNLADSLQGEKEVVRVWFCNRRQKEKR [L38G],-0.943 ± 0.076
15,KKRTSIEVSVKGALESHFLKCPKPSAQEITNLADSLQLEDEVVRVWFCNRRQKEKR [K40D],-0.028 ± 0.16
16,KKRTSIEVSVKGALESHFLKCPKPSAQEITNLADSLQLEREVVRVWFCNRRQKEKR [K40R],-0.06 ± 0.071
17,KKRTSIEVSVKGALESHFLKCPKPSAQEITNLADSLQLEMEVVRVWFCNRRQKEKR [K40M],-0.336 ± 0.16
18,KKRTSIEVSVKGALESHFLKCPKPSAQEITNLADSLQLEHEVVRVWFCNRRQKEKR [K40H],-0.136 ± 0.24
19,KKRTSIEVSVKGALESHFLKCPKPSAQEITNLADSLQLESEVVRVWFCNRRQKEKR [K40S],0.016 ± 0.084
20,KKRTSIEVSVKGALESHFLKCPKPSAQEITNLADSLQLECEVVRVWFCNRRQKEKR [K40C],-0.038 ± 0.1
21,KKRTSIEVSVKGALESHFLKCPKPSAQEITNLADSLQLEWEVVRVWFCNRRQKEKR [K40W],-0.073 ± 0.089
22,KKRTSIEVSVKGALESHFLKCPKPSAQEITNLADSLQLEIEVVRVWFCNRRQKEKR [K40I],0.048 ± 0.16
23,KKRTSIEVSVKGALESHFLKCPKPSAQEITNLADSLQLEGEVVRVWFCNRRQKEKR [K40G],-0.056 ± 0.07
24,KKRTSIEVSVKGALESHFLKCPKPSAQEITNLADSLQLELEVVRVWFCNRRQKEKR [K40L],-0.103 ± 0.092

row,Variant,abundance fitness
1,KKRTSIEVSVKGALESHFLKCPKPSAQEITNLADSLQLETEVVRVWFCNRRQKEKR [K40T],-0.076 ± 0.12
2,KKRTSIEVSVKGALESHFLKCPKPSAQEITNLADSLQLEQEVVRVWFCNRRQKEKR [K40Q],0.122 ± 0.14
3,KKRTSIEVSVKGALESHFLKCPKPSAQEITNLADSLQLENEVVRVWFCNRRQKEKR [K40N],-0.118 ± 0.18
4,KKRTSIEVSVKGALESHFLKCPKPSAQEITNLADSLQLEEEVVRVWFCNRRQKEKR [K40E],0.077 ± 0.11
5,KKRTSIEVSVKGALESHFLKCPKPSAQEITNLADSLQLEKAVVRVWFCNRRQKEKR [E41A],-0.344 ± 0.072
6,KKRTSIEVSVKGALESHFLKCPKPSAQEITNLADSLQLHKEVVRVWFCNRRQKEKR [E39H],-0.224 ± 0.13
7,KKRTSIEVSVKGALESHFLKCPKPSAQEITNLADSLQLCKEVVRVWFCNRRQKEKR [E39C],-0.109 ± 0.079
8,KKRTSIEVSVKGALESHFLKCPKPSAQEITNLADSLQLGKEVVRVWFCNRRQKEKR [E39G],-0.257 ± 0.064
9,KKRTSIEVSVKGALESHFLKCPKPSAQEITNLADSLQLSKEVVRVWFCNRRQKEKR [E39S],-0.055 ± 0.07
10,KKRTSIEVSVKGALESHFLKCPKPSAQEITNLADSLQLLKEVVRVWFCNRRQKEKR [E39L],-0.719 ± 0.11
11,KKRTSIEVSVKGALESHFLKCPKPSAQEITNLADSLQLNKEVVRVWFCNRRQKEKR [E39N],0.013 ± 0.13
12,KKRTSIEVSVKGALESHFLKCPKPSAQEITNLADSLQLDKEVVRVWFCNRRQKEKR [E39D],0.124 ± 0.12
13,KKRTSIEVSVKGALESHFLKCPKPSAQEITNLADSLQLPKEVVRVWFCNRRQKEKR [E39P],-0.116 ± 0.1
14,KKRTSIEVSVKGALESHFLKCPKPSAQEITNLADSLQLAKEVVRVWFCNRRQKEKR [E39A],-0.153 ± 0.069
15,KKRTSIEVSVKGALESHFLKCPKPSAQEITNLADSLQLMKEVVRVWFCNRRQKEKR [E39M],-0.428 ± 0.11
16,KKRTSIEVSVKGALESHFLKCPKPSAQEITNLADSLQLYKEVVRVWFCNRRQKEKR [E39Y],-0.927 ± 0.15
17,KKRTSIEVSVKGALESHFLKCPKPSAQEITNLADSLQLWKEVVRVWFCNRRQKEKR [E39W],-0.89 ± 0.12
18,KKRTSIEVSVKGALESHFLKCPKPSAQEITNLADSLQLTKEVVRVWFCNRRQKEKR [E39T],-0.074 ± 0.1
19,KKRTSIEVSVKGALESHFLKCPKPSAQEITNLADSLQLQKEVVRVWFCNRRQKEKR [E39Q],-0.322 ± 0.099
20,KKRTSIEVSVKGALESHFLKCPKPSAQEITNLADSLQLIKEVVRVWFCNRRQKEKR [E39I],-0.919 ± 0.17
21,KKRTSIEVSVKGALESHFLKCPKPSAQEITNLADSLQLFKEVVRVWFCNRRQKEKR [E39F],-0.948 ± 0.19
22,KKRTSIEVSVKGALESHFLKCPKPSAQEITNLADSLQLRKEVVRVWFCNRRQKEKR [E39R],-0.327 ± 0.064
23,KKRTSIEVSVKGALESHFLKCPKPSAQEITNLADSLQLKKEVVRVWFCNRRQKEKR [E39K],-0.258 ± 0.092
